Target: Spleen tyrosine kinase (Syk) (UniProt P43405)
Experiment: affinity purification of mIgG2a-BCRs with protein A/G agarose beads, anti-Syk immunoblot, band intensity quantified
Conditions: no inhibitor, Ramos cells

response (Syk/γ2am (normalized band intensity)) (stimulated for 5 min with polyclonal goat anti-mouse IgG antibodies): 1.7
response (Syk/γ2am (normalized band intensity)) (unstimulated (0 min α-IgG)): 0.3
Substance: mIgG2a-BCR (wild-type mouse γ2am expressed in Ramos cells, with Igα/β) (from UniProt P11912;P40259) YF

Source: paper PMC4263166
